Results from the RNAGym collection of RNA variant scans (doi:10.7554/elife.90254).

B1: OR4K15 (parent)
chain: GUUAACGGUCAUAGGCCAUGGAAACUAGGAGCACCAUUUCGCUGCCAGUGAAGAAAUGAACAAAGAAAAUCUGGGCCAGGCAGGCAUCAAAAGAAAUAGUCUUGCGCUCAACCAGAAAGUCUGUAAUCAUUUUAAGGGUA

Variants of: B1
Experiment: self-cleavage, relative activity (ratio to wild type); higher = more cleavage; in vitro, sequencing; the parent is a self-cleaving ribozyme

Variant | self-cleavage
A90U A110U | 0.89
A13G U131C | 1.01
U38A A47G | 1.59
A78G A96U | 0.4
U19A A86G | 2.13
A67G U132A | 1.42
G41A A125C | 0.19
U37G A60G | 1.48
A63U U97C | 1.05
U72A A86G | 0.17
A5G U38G | 1.02
A4C A62U | 0.93
C85A U100C | 0.72
A63G A67G | 1.6
U43A U122G | 2.29
A18G A118G | 1.34
A51U A117G | 2.45
A52C A140G | 1.87
A47U U122C | 0.67
G14A U70C | 0.96
A36G C71U | 0.31

Variant | self-cleavage
U19C A64U | 1.45
A33U A59G | 1.28
A5G U127C | 0.8
A90G A125G | 0.23
U3C A64G | 0.7
U3C U43A | 1.31
U38C C105A | 0.05
A82G U108A | 0.04
A22G U132G | 1.75
A36U U57C | 1.58
U72G A135G | 0.22
A24G U26A | 0.98
G106A U124C | 0.01
U49G U108C | 0.01
A67G A116G | 0.71
A18U A90G | 0.53
A51G U133A | 1.15
U26C U132A | 0.61
A13U A18U | 0.56
U39C U72C | 0.27
G7U U108A | 0.06

Variant | self-cleavage
A30U A129U | 0.63
A60G U132C | 1.07
U124C U132C | 1.13
C6A A95G | 0.79
A52C A129G | 0.62
C40U A55G | 1.67
A36C A51U | 2.34
A22G G58A | 0.55
A47G A135G | 1.27
A55G U132C | 1.46
U38C C121U | 1.86
U26A A114G | 0.2
A5G U43C | 0.59
A22G A68G | 1.31
C76U U87C | 0.17
A56G A140U | 2.1
U43A U100C | 2.43
U43A U120C | 0.37
C32A U132C | 0.85
A11G A47G | 1.27
A4C A62G | 0.88

Variant | self-cleavage
A91G A129G | 0.58
U70A A95G | 1.98
U120G U130A | 1.2
A23G A55G | 1.27
A52G G123A | 0.48
A11U A96G | 1.31
A60C A68G | 1.17
A69C A117U | 0.21
A117G U130A | 0.26
A11U G58A | 0.75
A66G A68G | 0.62
G29U U102A | 1
A54G C85A | 0.82
A62U A63U | 1.75
G31C U87C | 2.1
A5G U9C | 0.82
A24G A82G | 0.67
A62G U97C | 1.34
C16U A27G | 0.94
A60G C107U | 0
